Reference: publication PMC5743566 (Theranostics, 2018)

What was measured:
Experiment in all cases: immunostaining of cells or tissue
HBx of HBV genotype C = HBx of HBV genotype C (Hepatitis B virus genotype C, strain …, UniProt P0C686, strain)
HBx of HBV genotype D = HBx of HBV genotype D (Hepatitis B virus genotype D, strain …, UniProt P03165, strain)
HBx of HBV genotype A = HBx of HBV genotype A (Hepatitis B virus genotype A, strain …, UniProt P69713, strain)

Measured: binding result

B1: 9D11 mAb (antibody, V domains shown)
VH: QVQLQQPGAELVRPGASVKLSCKASGYSFTSFWISWVKQRPGQGLEWIAMIHPSDNGIRFNQKFKDKATLTVDKSSSTAYMQLNSPTSEDSAVYFCARAGTATFTYWGQGTLVTVSA
VL: DIQMTQTTSSLSVSLGDRVTISCRASQDISNYLNWYQQKPDGIVKLLIYYTSRLHSGVPSRFSGSGSGTDYSLTISNLEQEDLATYFCQQGNALPWTFGGGTKLEIK
binds: HBx of HBV genotype C | HBx of HBV genotype D | HBx of HBV genotype A
